Experimental data reported in paper PMC6834639, “Molecular basis for chirality-regulated Aβ self-assembly and receptor recognition revealed by ion mobility-mass spectrometry” (Nature Communications, 2019).
Square brackets hold non-standard residues; d marks the D form. Ends that are not written are not given here.

How the values were obtained:
[1] = target: tetrameric transthyretin (TTR) (UniProt P02766 21-147); experiment: SPR; OpenSPR (Nicoya), TTR immobilised on a COOH chip by amine coupling; Aβ peptides injected (Aβ C-terminals 2.4-48 µM; Aβ (1–40/42) 0.2-20 µM); PBS pH 6.8 with 0.005% Tween 20; 150 s association, 400 s dissociation; 1:1 interaction model; conditions: both partners purified
[2] = target: the molecule itself; experiment: native MS; IM-MS of YGGFL aggregates; mass spectrum, concentration dependence and growth curve
[3] = target: the molecule itself; experiment: native MS; IM-MS of oligomers of one Aβ fragment alone; Aβ (1–10) and Aβ (1–16) 600 µM, 10 mM NH4OAc; oligomers of many sizes seen, a printed size is the largest one
[4] = target: T1, human serum albumin (HSA) (human, UniProt P02768 25-609); experiment: native MS; native IM-MS with collision-induced unfolding (CIU); 100 mM NH4OAc; Aβ (1–16) 15 µM, Cu2+ 20 µM, BSA/HSA 7.5 µM; 37 °C incubation; conditions: both partners purified
T1 construct: serum albumin, human; source: bought: Sigma-Aldrich

[5] = target: T2, bovine serum albumin (BSA) (bovine, UniProt P02769 25-607); experiment: as above; conditions: both partners purified
T2 construct: serum albumin, bovine; source: bought: Sigma-Aldrich

[6] = target: T1, human serum albumin (HSA); experiment: native MS; native IM-MS with CIU of HSA-Aβ (1–10) complexes, charge states 15+ to 18+; conditions: both partners purified

T2 sequence (P02769 25-607): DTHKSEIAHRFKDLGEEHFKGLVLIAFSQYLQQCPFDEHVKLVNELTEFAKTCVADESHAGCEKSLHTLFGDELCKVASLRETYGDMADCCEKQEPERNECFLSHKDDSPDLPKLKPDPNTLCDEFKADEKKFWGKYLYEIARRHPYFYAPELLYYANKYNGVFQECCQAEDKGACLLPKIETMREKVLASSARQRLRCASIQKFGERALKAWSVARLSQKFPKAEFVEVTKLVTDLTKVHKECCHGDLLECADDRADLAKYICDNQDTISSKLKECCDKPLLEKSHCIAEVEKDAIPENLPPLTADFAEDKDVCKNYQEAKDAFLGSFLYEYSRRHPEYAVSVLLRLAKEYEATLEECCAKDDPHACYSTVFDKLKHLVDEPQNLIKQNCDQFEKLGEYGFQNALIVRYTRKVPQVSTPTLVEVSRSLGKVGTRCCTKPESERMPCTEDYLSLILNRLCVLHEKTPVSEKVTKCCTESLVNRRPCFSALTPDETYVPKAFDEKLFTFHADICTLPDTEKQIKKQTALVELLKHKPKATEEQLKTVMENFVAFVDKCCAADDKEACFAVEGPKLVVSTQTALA

B1: dS Aβ (17–36) (peptide)
peptide: LVFFAEDVG[dS]NKGAIIGLMV
notes: amyloid beta residues 17-36 with D-isomerized Ser; also called single D-isomerized Aβ (17–36); source: bought: Sangon Biotech Co., Ltd. (Shanghai, China)
Q: For B1, which Kd [1] is on record?
A: Its Kd is 118 µM.

Q: And the koff [1]?
A: Its koff is 0.114 s⁻¹.

Q: And the kon [1]?
A: Its kon is 1160 M⁻¹ s⁻¹.

B2: WT Aβ (17–36) (peptide)
peptide: LVFFAEDVGSNKGAIIGLMV
notes: amyloid beta residues 17-36, all L; also called Aβ C-terminal fragment; source: bought: Sangon Biotech Co., Ltd. (Shanghai, China)
Q: With B2 as the binder, how does the Kd [1] read?
A: Its Kd is 11.5 µM.

Q: What about the koff [1] of the same binder?
A: The koff was 0.008 s⁻¹.

Q: And the kon [1]?
A: Its kon is 690 M⁻¹ s⁻¹.

B3: YGGFL (peptide)
peptide: YGGFL
notes: YGGFL, used as a known model of isotropic growth
Q: Does B3 bind [2]?
A: Result: binds

B4: WT Aβ (1–16) (peptide)
peptide: DAEFRHDSGYEVHHQK
notes: amyloid beta residues 1-16, all L; also called wild type Aβ (1–16); source: bought: Sangon Biotech Co., Ltd. (Shanghai, China)
Q: Does B4 bind [3]?
A: Result: binds

Q: Does B4 bind [4]?
A: Result: binds

Q: Does B4 bind [5]?
A: Result: binds

B5: dD Aβ (17–36) (peptide)
peptide: LVFFAE[dD]VGSNKGAIIGLMV
notes: amyloid beta residues 17-36 with D-isomerized Asp; also called single D-isomerized Aβ (17–36); source: bought: Sangon Biotech Co., Ltd. (Shanghai, China)
Q: What does the source list for B5?
A: Kd [1]: 149 µM; koff [1]: 0.132 s⁻¹; kon [1]: 990 M⁻¹ s⁻¹

B6: WT Aβ (1–10) (peptide)
peptide: DAEFRHDSGY
notes: amyloid beta residues 1-10, all L; also called Aβ N-terminal fragment; source: bought: Sangon Biotech Co., Ltd. (Shanghai, China)
Q: Does B6 bind [6]?
A: Result: binds

B7: dDdS Aβ (17–36) (peptide)
peptide: LVFFAE[dD]VG[dS]NKGAIIGLMV
notes: amyloid beta residues 17-36 with D-isomerized Asp and Ser; also called co-isomerized Aβ (17–36); source: bought: Sangon Biotech Co., Ltd. (Shanghai, China)
Q: With B7 as the binder, how does the Kd [1] read?
A: The Kd was 83.1 µM.

Q: What about the koff [1] of the same binder?
A: Its koff is 0.102 s⁻¹.

Q: What about the kon [1] of the same binder?
A: Its kon is 1930 M⁻¹ s⁻¹.
